Data on 1 molecule can be found in paper PMC8563728 (Nature Communications, 2021).

This experiment has as its target SARS-CoV-2 S1 (SARS-CoV-2, wild type (Wuhan-Hu-1), UniProt P0DTC2). Put plainly: SPR. The settings on record: both partners purified.

B1: 58G6 (antibody, V domains shown)
VH: QMQLVQSGPEVKKPGTSVKVSCKASGFTFSSSAVQWVRQARGQHLEWIGWIVVGSGNTNYAQKFQERVTLTRDMSTRTAYMELSSLRSEDTAVYYCAAPNCNSTTCHDGFDIWGQGTVVTVSS
VL: EIVLTQSPGTLSLSPGERATLSCRASQSVRSSYLGWYQQKPGQAPRLLIYGASSRATGIPDRFSGSGSGTDFTLTISRLESEDFAVYYCQQYDNSPWTFGQGTKVEIK
notes: also called 58G6 mAb; copies: 2 + 2
Regarding B1, the Kd (commonly the concentration at which binding is half-saturated) was 1.08 nM.
